According to US20260069689A1 (Regeneron, published 2026):

Key:
[1] = biological target: human FcγR3a 176Val allotype receptor (human, UniProt P08637 17-254); test: cell-based or functional assay
[2] = biological target: SARS-COV-2 RBD-MMH (SARS-CoV-2); test: SPR 37C, run with dissociation at pH 7.4
[3] = biological target: SARS-COV-2 RBD-MMH (SARS-CoV-2); test: SPR 37C, run with dissociation at pH 5.0
[4] = biological target: SARS-COV-2 RBD-MMH (SARS-CoV-2); test: SPR 37C

Row | Binder | EC50 (M), Jurkat/CD20/spike [1] [M] | Fold induction, Jurkat CD20 [1] [fold] | Fold induction, Jurkat/CD20/spike [1] [fold] | RBD.mmh Bound at pH 7.4 (RU) [2] [RU] | koff [2] [s⁻¹] | RBD.mmh Bound at pH 7.4 (RU) [3] [RU] | koff [3] [s⁻¹] | t½ [3] [min] | t½ Ratio of pH 7.4 to pH 5.0 [4] | EC50 (M), Jurkat CD20 [1] [M]
1 | mAb14283 (antibody) heavy: not shown light: QSALTQPASVSGSPGQSTTISCTGTSSDVGGYNYVSWYQQYPGKAPKLMIYDVTNRPSGVSHRFSGSKSGNTASLTISGLQAEDEADYYCSSYTSSSTVIFGGGTKLTVLGQPKAAPSVTLFPPSSEELQANKATLVCLISDFYPGAVTVAWKADSSPVKAGVETTTPSKQSNNKYAASSYLSLTPEQWKSHRSYSCQVTHEGSTVEKTVAPTECS | 1.39e-10 | 1.1 | 9.1 | 87.7 | 0.00169 | 91.7 | 0.00512 | 2.3 | 3 | 
2 | mAb14286 (antibody) heavy: not shown light: QSALTQPASVSGYPGQSITISCTGTSSDVGGYNYVSWYQQHPGKAPKLMIFDVSNRPSGVSNRFSGSKSGNTASLTFSGLQAEDEADYYCSSYTSSSTLVFGGGTKLTVLGQPKAAPSVTLFPPSSEELQANKATLVCLISDFYPGAVTVAWKADSSPVKAGVETTTPSKQSNNKYAASSYLSLTPEQWKSHRSYSCQVTHEGSTVEKTVAPTECS | 2.04e-10 | 1 | 11 | 84.3 | 0.00968 | 82.4 | 0.00664 | 1.7 | 0.7 | 
3 | mAb14280 (antibody) heavy: not shown light: QSALTQPPSASGSPGQSVTISCTGTSSDVGGYNFVSWYQQHPGKAPKLMIYEVSKRPSGVPDRFSGSKSGNTASLTVSGLQAEDEADYYCSSYAGSNNFVFGTGTKVTVLGQPKAAPSVTLFPPSSEELQANKATLVCLISDFYPGAVTVAWKADSSPVKAGVETTTPSKQSNNKYAASSYLSLTPEQWKSHRSYSCQVTHEGSTVEKTVAPTECS | 2.67e-10 | 1.1 | 13.5 | 72.4 | 0.024 | 61.7 | 0.0103 | 1.1 | 0.5 | 
4 | mAb14289 (antibody) heavy: not shown light: EIVLTQSPGTLSLSPGERATLSCRASQSVSSYLAWYQQKPGQAPRLLIHGASSRATGIPDRFSGSGSGTDFTLTISRLEPEDFAVYYCQQYGSSFLTFGGGTKVEIKRTVAAPSVFIFPPSDEQLKSGTASVVCLLNNFYPREAKVQWKVDNALQSGNSQESVTEQDSKDSTYSLSSTLTLSKADYEKHKVYACEVTHQGLSSPVTKSFNRGEC | 1.3e-10 | 1 | 6.3 | 86.1 | 0.00185 | 89.3 | 0.0046 | 2.5 | 2.5 | 
5 | mAb14234 (antibody) heavy: not shown light: QSVLTQPPSVSGAPGQRVTISCTGSSSNIGIGYDVHWYQQLPGTVPKLLIYGNTNRPSGVPDRFSGSKSGTSASLAITGLQAEDEADYYCQSYDSSLSSYVFGTGTKVTVLGQPKAAPSVTLFPPSSEELQANKATLVCLISDFYPGAVTVAWKADSSPVKAGVETTTPSKQSNNKYAASSYLSLTPEQWKSHRSYSCQVTHEGSTVEKTVAPTECS | 2.69e-10 | 1.1 | 12.6 | 37.9 | 0.00221 | 40.4 | 0.00166 | 7 | 0.7 | 
6 | mAb14281 (antibody) heavy: not shown light: SSELTQDPAVSVALGQTVRITCQGDSLRSYYASWYQQKPGQAPVLVIYDKNNRPSGIPDRFSGSSSGNTASLTITGAQAEDEADYYCNSRDSSRNHLVVFGGGTKLTVLGQPKAAPSVTLFPPSSEELQANKATLVCLISDFYPGAVTVAWKADSSPVKAGVETTTPSKQSNNKYAASSYLSLTPEQWKSHRSYSCQVTHEGSTVEKTVAPTECS | 1.65e-10 | 1.1 | 10.3 | 83.5 | 0.00659 | 51.7 | 0.0117 | 1 | 1.8 | 
7 | mAb14235 (antibody) heavy: not shown light: QSALTQPASVSGSPGQSITISCTATSSDVGTYNYVSWFQHHPGKAPKLMIYEVTNRPSGVSNRFSGSKSGNTASLTISGLQAEDEADYYCSSYTTTSIVFGGGTKLTVLGQPKAAPSVTLFPPSSEELQANKATLVCLISDFYPGAVTVAWKADSSPVKAGVETTTPSKQSNNKYAASSYLSLTPEQWKSHRSYSCQVTHEGSTVEKTVAPTECS | 1.43e-10 | 1 | 10.8 | 71.2 | 0.00148 | 80.8 | 0.00119 | 9.7 | 0.8 | 
8 | mAb14284 (antibody, also called REGN14284) heavy: not shown light: QSALTQPASVSGSPGQSITISCTGTSSDLGVFNYVSWYQQHPGKAPKLMIYEVTNRPSGVSNRFSGSKSGNTASLTISGLQAEDEADYYCSSYTTSSTVFGGGTKLTVLGQPKAAPSVTLFPPSSEELQANKATLVCLISDFYPGAVTVAWKADSSPVKAGVETTTPSKQSNNKYAASSYLSLTPEQWKSHRSYSCQVTHEGSTVEKTVAPTECS | 1.56e-10 | 1.1 | 9 | 147 | 0.000624 | 159 | 0.000736 | 15.7 | 1.2 | 
9 | mAb14247 (antibody) heavy: not shown light: QSALTQPASVSGSPGQSITISCTATSSDVGNYNYVSWYQQHPGKAPKLMIYEVSNRPSGVSNRFSGSKSGNTASLTISGLQAEDEADYYCSSYTSSSTPLVFGGGTKLTVLGQPKAAPSVTLFPPSSEELQANKATLVCLISDFYPGAVTVAWKADSSPVKAGVETTTPSKQSNNKYAASSYLSLTPEQWKSHRSYSCQVTHEGSTVEKTVAPTECS | 1.79e-10 | 1 | 11.3 | 40.8 | 0.00158 | 51.9 | 0.00191 | 6.1 | 1.2 | 
10 | mAb14312 (antibody) heavy: not shown light: QSVLTQPPSVSGAPGQRVTISCTGSSSNIGAGDDVHWYQQLPGTAPKLLIYGNSNRPSGVPDRFSGSKSGTSASLAITGLQAEDEADYYCQSYDSSLSGSVVFGGGTKLTVLGQPKAAPSVTLFPPSSEELQANKATLVCLISDFYPGAVTVAWKADSSPVKAGVETTTPSKQSNNKYAASSYLSLTPEQWKSHRSYSCQVTHEGSTVEKTVAPTECS | 1.68e-10 | 2 | 7.5 | 95.2 | 0.000859 | 96.7 | 0.00558 | 2.1 | 6.4 | 1.84e-08
11 | mAb14282 (antibody) heavy: not shown light: QSALTQPASVSGSPGQSITISCTGTSSDVGSYNLVSWYQQHPGKAPKLMIYELTKRPSGVSNRFSGSKSGNTASLTISGLQAEDEADYYCSSYRGSVTDVVFGGGTKLTVLGQPKAAPSVTLFPPSSEELQANKATLVCLISDFYPGAVTVAWKADSSPVKAGVETTTPSKQSNNKYAASSYLSLTPEQWKSHRSYSCQVTHEGSTVEKTVAPTECS | 2.57e-10 | 1.1 | 10.7 | 73.5 | 0.0126 | 62.4 | 0.00671 | 1.7 | 0.5 | 
12 | mAb14294 (antibody) heavy: not shown light: EIVLTQSPGTLSLSPGERATLSCRASQSVSSSQLAWYQQKPGQAPRLLIYGASSRATGIPDRFSGSGSGTDFTLTISRLEPEDFAVYYCQQYDSFGQGTKLEIKRTVAAPSVFIFPPSDEQLKSGTASVVCLLNNFYPREAKVQWKVDNALQSGNSQESVTEQDSKDSTYSLSSTLTLSKADYEKHKVYACEVTHQGLSSPVTKSFNRGEC | 6.04e-11 | 1 | 10.5 | 83.2 | 0.00092 | 97.6 | 0.000452 | 25.5 | 0.5 | 
